Measured values: the supplement of paper PMC10567573

B1: ZER1 (parent)
chain: PILRLLPQGISPVSQHWATWALYN
B2: ZNF511 (parent)
chain: YEHHYHTLHGNVCSFCKRAFPSGH

Variants of: B1
Test: protein stability index of a GFP-peptide fusion (GPS, HEK-293T) (PSI 1-6); higher = more stable
Settings: c terminus: a fixed tail appended
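Note: lentivirally expressed fusions sorted by FACS into six bins by GFP to DsRed ratio, PSI derived from sequencing read proportions per bin multiplied by bin number.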

Protein stability index of substitutions, site by site:
G9: K 3.57 | N 2.01 | Q 1.97 | F 2.78 | H 5.34 | S 2.01 | I 2.95 | T 2.8
L6: Q 1.46 | R 3.26 | Y 2.65 | P 2.83 | F 3.51 | C 2.88 | D 2.56 | E 2.53
S11: P 1.77 | H 2.03 | L 2.53 | R 3.06 | A 2.83 | V 2.22 | M 1.99 | G 2.17 | E 3.05 | C 3.31 | W 1.59 | D 3.26 | I 2.53
R4: K 3.47 | L 1.38 | I 3.46 | H 2.46 | N 2.38 | Y 3.25 | Q 1.4 | W 2.54 | V 2.42 | F 4.37 | T 3.54 | S 2.24
T19: D 2.33 | P 2.12 | G 1.97 | A 2.69 | K 2.3
Y23: S 1.66 | E 1.8 | I 3.22 | V 3.73 | D 2 | H 3.01 | G 2.11 | R 1.17 | P 1.54 | W 4.62 | K 1.92 | N 2.92
P7: T 3.41 | C 2.12 | H 5.21 | E 3.19 | A 2.22 | F 2.8 | R 1.55 | M 3.56 | D 2.52 | W 1.97 | V 1.65
Q15: T 3.05 | V 3.31 | M 4.6 | K 2.97 | G 1 | L 1.94 | N 2.99 | F 2.68 | E 2.19
L22: K 1.52 | R 3.48 | Q 3.18 | H 1.58 | S 1.71 | N 1.88 | A 3.32 | P 1.57 | D 2.02 | E 1.58 | W 4.02 | Y 2.83 | G 2.3
W17: K 2.16 | N 1.83 | M 3.18 | Q 3.2 | C 2.27 | L 4.01 | G 1.93 | P 1.4 | E 2.35 | T 1.73 | Y 2.15 | S 2.51 | A 1.72 | R 3.1 | I 3.9 | H 1.57 | V 2.59 | D 1.79 | F 3.63
H16: N 2.34 | I 3.38 | K 1.94 | E 1.34 | R 3.32 | D 2.11 | P 1.45
A21: Y 4.95 | V 3.96 | Q 3.72 | T 2.57 | M 3.29 | N 1.76 | I 3.15 | D 2.79 | L 2.38 | P 2.65 | S 2.6 | C 2.69 | F 2.7 | R 1 | K 2.07 | W 2.29 | E 2.6
W20: D 2.6 | A 2.62 | C 3.55 | K 1.28 | F 3.5 | T 3.72 | Q 1.47 | P 2.79 | G 1.37 | R 1.64 | H 2.61 | M 3.46 | Y 2.5 | N 2.09 | S 2.41 | I 4.55 | E 1.58
P1: T 2.19 | A 5.68 | R 2 | K 2.4 | H 2.39 | S 2.07 | F 3.24
Q8: Y 2.12 | R 3.32 | W 3.15 | F 2.58 | K 2.29
S14: T 1.11 | K 1.43 | V 2.62 | Q 2.12 | C 2.98 | Y 2.6
L5: Y 1.77 | N 1.99 | M 3.4 | H 2.07 | K 1.25 | V 3.75 | A 1.65 | R 1.84 | Q 1.95 | F 2.22 | T 1.14 | D 2.04 | C 3.09 | G 3.62
I2: C 2.98 | E 2.45 | P 3.08 | R 3.12 | T 2.92 | A 2.46 | N 1.5 | H 1.17 | D 2.52 | K 2.04 | Q 1.26
V13: A 4.06 | C 2.48 | W 1.54 | T 3.01 | N 1.8 | G 1.87 | D 2.84 | L 2.34 | I 1.68 | F 1.88 | S 2.54
N24: I 3.12 | A 2.09 | H 2.93 | P 3.08 | V 3.21 | R 4.17 | W 2.32 | D 3.49 | T 2.25 | M 3.8 | Q 2.31 | L 4.12
I10: D 1.76 | L 2.61 | E 3.31 | M 3.55 | N 2.41 | H 2.79
P12: H 3.2 | Y 3.44 | K 2.87 | I 3.2 | F 3.32 | N 1.85 | Q 3.42 | V 2.1 | A 2.33
L3: W 1.02 | T 2.52 | D 3.05 | I 1.5 | E 1.36 | V 1.78 | H 1.75 | N 2.54 | G 1.44 | P 1.04 | Q 1.62 | A 3.7 | R 1.95
A18: K 2.89 | M 2.28 | H 2.94 | E 2.82 | I 1.83 | N 3.82 | C 1.74 | Y 4.06 | R 2.58 | G 2.24 | L 2.27 | T 3.18

Variants of: B2
Test: as above
Settings: c terminus: a fixed tail appended

Protein stability index of substitutions, site by site:
G23: P 2.27 | R 1.98 | H 1.38 | A 2.1 | E 1.86 | Y 1.97 | S 2.7 | W 1.62 | K 2.01 | N 2.51 | F 1.83 | T 2.16 | Q 1.93 | M 1.92 | I 1.86 | C 2.33 | V 1.61 | D 2.31 | L 1.63
P21: W 1.61 | S 2.48 | L 2.36 | I 2.29 | E 2.2 | K 1.9 | D 2.88 | V 2.34 | R 1.91 | C 3.6 | G 2.31 | N 1.97 | M 2.57 | T 2.38 | F 2.13 | H 2.32 | A 2.6 | Q 1.97 | Y 1.77
S22: Y 1.7 | F 2.15 | N 3.01 | P 2.67 | D 2.33 | W 1.47 | C 2.69 | V 1.84 | L 2.87 | R 2.03 | Q 1.45 | A 2.08 | H 2.99 | T 2.27 | M 2.89 | G 2.02 | I 2.24 | E 2.44 | K 1.8
F20: Y 2.25
H24: D 2.35 | R 2.08 | E 2.57 | Y 1.65 | S 2.46 | I 1.78 | L 2.02 | V 2.25 | A 2.13 | K 1.57 | W 2.43 | Q 2.08 | C 2.07 | P 2.08 | F 2.5 | M 2.17 | G 2.09 | N 2.39 | T 2.24
